Read-outs that look alike come from different tables or passages of the source.
Columns and labels:
[1] = target: gp41 of HIVMN (virus) (HIV-1 strain MN)
[2] = target: gp120 of HIVMN (HIV-1 strain MN) (UniProt P05877)
[3] = target: gp120 of HIVMN (HIV-1 strain MN) (UniProt P05877); remark: listed apart in the source
[4] = target: 20-mer V3 peptide of HIVMN (American Bio-Technologies) (HIV-1 strain MN); experiment: Friguet ELISA method, V3 MN peptide
[5] = target: hexapeptide AFYTTK (pin 16) (HIV-1 strain MN); experiment: pin ELISA, hexapeptide on plastic pin
[6] = target: hexapeptide FYTTKN (pin 17) (HIV-1 strain MN); experiment: pin ELISA, hexapeptide on plastic pin
[7] = target: hexapeptide GPGRAF (pin 12) (HIV-1 strain MN); experiment: pin ELISA, hexapeptide on plastic pin
[8] = target: hexapeptide GRAFYT (pin 14) (HIV-1 strain MN); experiment: pin ELISA, hexapeptide on plastic pin
[9] = target: hexapeptide HIGPGR (pin 10) (HIV-1 strain MN); experiment: pin ELISA, hexapeptide on plastic pin
[10] = target: hexapeptide IGPGRA (pin 11) (HIV-1 strain MN); experiment: pin ELISA, hexapeptide on plastic pin
[11] = target: hexapeptide IHIGPG (pin 9) (HIV-1 strain MN); experiment: pin ELISA, hexapeptide on plastic pin
[12] = target: hexapeptide KRIHIG (pin 7) (HIV-1 strain MN); experiment: pin ELISA, hexapeptide on plastic pin
[13] = target: hexapeptide KRKRIH (pin 5) (HIV-1 strain MN); experiment: pin ELISA, hexapeptide on plastic pin
[14] = target: hexapeptide NKRKRI (pin 4) (HIV-1 strain MN); experiment: pin ELISA, hexapeptide on plastic pin
[15] = target: hexapeptide PGRAFY (pin 13) (HIV-1 strain MN); experiment: pin ELISA, hexapeptide on plastic pin
[16] = target: hexapeptide RAFYTT (pin 15) (HIV-1 strain MN); experiment: pin ELISA, hexapeptide on plastic pin
[17] = target: hexapeptide RIHIGP (pin 8) (HIV-1 strain MN); experiment: pin ELISA, hexapeptide on plastic pin
[18] = target: hexapeptide RKRIHI (pin 6) (HIV-1 strain MN); experiment: pin ELISA, hexapeptide on plastic pin
[19] = target: hexapeptide TKNIIG (pin 20) (HIV-1 strain MN); experiment: pin ELISA, hexapeptide on plastic pin
[20] = target: hexapeptide TTKNII (pin 19) (HIV-1 strain MN); experiment: pin ELISA, hexapeptide on plastic pin
[21] = target: hexapeptide YNKRKR (pin 3) (HIV-1 strain MN); experiment: pin ELISA, hexapeptide on plastic pin
[22] = target: hexapeptide YTTKNI (pin 18) (HIV-1 strain MN); experiment: pin ELISA, hexapeptide on plastic pin
[23] = target: recombinant gp120 protein of HIVSF2 (produced in CHO cells) (HIV-1 isolate SF-2) (UniProt P03378); experiment: Friguet method; reference: the 20-mer SF-2 peptide
[24] = target: 20-mer V3 peptide of HIVMN (American Bio-Technologies) (HIV-1 strain MN); experiment: competition ELISA in solution at equilibrium (Friguet method)
[25] = target: 20-mer V3 peptide of HIVSF2 (HIV-1 isolate SF-2); experiment: as above
[26] = target: 20-mer V3 peptide of HIVSF2 (HIV-1 isolate SF-2); experiment: as above; remark: listed apart in the source
[27] = target: recombinant gp120 protein of HIVSF2 (produced in CHO cells) (HIV-1 isolate SF-2) (UniProt P03378); experiment: as above

human mAb 50-69 (antibody)
neutralizing antibody titer (50%), MT-2 plaque assay, 1 hr, no complement (titer (1:x dilution)) [1]: 3 | neutralizing antibody titer (50%), MT-2 plaque assay, 18 hr with human complement (titer (1:x dilution)) [1]: 3

human mAb 257-D (antibody)
neutralizing antibody titer (50%), MT-2 plaque assay, 1 hr, no complement [2]: 3 ng/mL | neutralizing antibody titer (50%), MT-2 plaque assay, 18 hr with human complement [2]: 0.3 ng/mL | 50% neutralization, CEM-SS syncytium-forming assay, IgG concentration [3]: 0.01 µg/mL | 90% neutralization, CEM-SS syncytium-forming assay, IgG concentration [3]: 0.88 µg/mL | Kd [4]: 230 nM | ELISA reactivity (absorbance units) (absorbance units) [5]: 0.233 | ELISA reactivity (absorbance units) (absorbance units) [6]: 0.273 | ELISA reactivity (absorbance units) (absorbance units) [7]: 0.208 | ELISA reactivity (absorbance units) (absorbance units) [8]: 0.272 | ELISA reactivity (absorbance units) (absorbance units) [9]: 0.156 | ELISA reactivity (absorbance units) (absorbance units) [10]: 0.163 | ELISA reactivity (absorbance units) (absorbance units) [11]: 0.13 | ELISA reactivity (absorbance units) (absorbance units) [12]: 1.59 | ELISA reactivity (absorbance units) (absorbance units) [13]: 0.259 | ELISA reactivity (absorbance units) (absorbance units) [14]: 0.288 | ELISA reactivity (absorbance units) (absorbance units) [15]: 0.456 | ELISA reactivity (absorbance units) (absorbance units) [16]: 0.333 | ELISA reactivity (absorbance units) (absorbance units) [17]: 0.276 | ELISA reactivity (absorbance units) (absorbance units) [18]: 1.78 | ELISA reactivity (absorbance units) (absorbance units) [19]: 0.164 | ELISA reactivity (absorbance units) (absorbance units) [20]: 0.219 | ELISA reactivity (absorbance units) (absorbance units) [21]: 0.256 | ELISA reactivity (absorbance units) (absorbance units) [22]: 0.259 | Difference (Kd of the SF-2 peptide against SF-2 recombinant) [23]: 15 fold | Kd [24]: 230 nM | Kd [25]: 220 nM | Kd [26]: 630 nM | Kd [27]: 41.6 nM

human mAb 268-D (antibody)
neutralizing antibody titer (50%), MT-2 plaque assay, 1 hr, no complement [2]: 23 ng/mL | neutralizing antibody titer (50%), MT-2 plaque assay, 18 hr with human complement [2]: 1.1 ng/mL | 50% neutralization, CEM-SS syncytium-forming assay, IgG concentration [3]: 0.1 µg/mL | 90% neutralization, CEM-SS syncytium-forming assay, IgG concentration [3]: 1 µg/mL | Kd [4]: 590 nM | ELISA reactivity (absorbance units) (absorbance units) [5]: 0.222 | ELISA reactivity (absorbance units) (absorbance units) [6]: 0.274 | ELISA reactivity (absorbance units) (absorbance units) [7]: 0.132 | ELISA reactivity (absorbance units) (absorbance units) [8]: 0.288 | ELISA reactivity (absorbance units) (absorbance units) [9]: 1.01 | ELISA reactivity (absorbance units) (absorbance units) [10]: 0.164 | ELISA reactivity (absorbance units) (absorbance units) [11]: 0.132 | ELISA reactivity (absorbance units) (absorbance units) [12]: 0.179 | ELISA reactivity (absorbance units) (absorbance units) [13]: 0.239 | ELISA reactivity (absorbance units) (absorbance units) [14]: 0.283 | ELISA reactivity (absorbance units) (absorbance units) [15]: 0.346 | ELISA reactivity (absorbance units) (absorbance units) [16]: 0.35 | ELISA reactivity (absorbance units) (absorbance units) [17]: 0.135 | ELISA reactivity (absorbance units) (absorbance units) [18]: 0.252 | ELISA reactivity (absorbance units) (absorbance units) [19]: 0.141 | ELISA reactivity (absorbance units) (absorbance units) [20]: 0.212 | ELISA reactivity (absorbance units) (absorbance units) [21]: 0.243 | ELISA reactivity (absorbance units) (absorbance units) [22]: 0.259 | Kd [24]: 590 nM | Kd [25]: 2300 nM
